Experimental data published in patent publication US20260184793A1 (TJ BIOPHARMA SHANGHAI, published 2026).
Where two headings read alike, the source gives them in different places.

B1: 112-VH47 (VHH)
VHH: EVQLVESGGGLVQPGGSLRLSCAASGFTFSSGTQFSDSKIDWYRQAPGKGLVWVAGIFSTGSTIYEDSVKGRFTISRDNAKNTGYLQMNSLRAEDTAVYYCRVIGRGILAWGQGTLVTVSS
B2: R21560102 (VHH)
VHH: EVQLVESGGGLVQPGGSLRLSCAASGFTFSSGTQFSDSKIDWYRQAPGKGLVWVAGIFQTGSTIYEDSVKGRFTISRDNAKNTGYLQMNSLRAEDTAVYYCRVIGRGILAWGQGTLVTVSS
notes: ELISA detection with anti-human IgG Fc implies a human Fc part that is not described
B3: R21560103 (VHH)
VHH: EVQLVESGGGLVQPGGSLRLSCAASGFTFSSGTQFSDSKIDWYRQAPGKGLVWVAGIFSTGSTIYEDSVKGRFTISRDNAKNTGYLQMNSLRAEDTAVYYCRVIGIGILAWGQGTLVTVSS
notes: as for B2
B4: R21560106 (VHH)
VHH: EVQLVESGGGLVQPGGSLRLSCAASGFTFSSGTQFSDSKADWYRQAPGKGLVWVAGIFSTGSTIYEDSVKGRFTISRDNAKNTGYLQMNSLRAEDTAVYYCRVIGRGTLAWGQGTLVTVSS
notes: as for B2
B5: 93-VH-6 (VHH)
VHH: EVQLVESGGGLVQPGGSLRLSCAASGFTFTFRHYVMGWFRQAPGKEREFVAAISWSGSGSYYADSVKGRFTISRDNSKNTVYLQMNSLRAEDTAVYYCAADMTTRMSQASREYDYWGQGTLVTVSS
B6: R21448502 (VHH)
VHH: EVQLVESGGGLVQPGGSLRLSCAASGFTFTFYHYVMGWFRQAPGKEREFVAAISWSGSGSYYADSVKGRFTISRDNSKNTVYLQMNSLRAEDTAVYYCAADMTTRMSQASREYDYWGQGTLVTVSS
notes: as for B2
B7: R21448504 (VHH)
VHH: EVQLVESGGGLVQPGGSLRLSCAASGFTFTFRHYVMGWFRQAPGKEREFVAAISWSGSGSYYADSVKGRFTISRDNSKNTVYLQMNSLRAEDTAVYYCAADMTTEMSQASREYDYWGQGTLVTVSS
notes: as for B2
B8: R21448505 (VHH)
VHH: EVQLVESGGGLVQPGGSLRLSCAASGFTFTFRHYVMGWFRQAPGKEREFVAAISWSGSGSYYADSVKGRFTISRDNSKNTVYLQMNSLRAEDTAVYYCAADMTTRMSQDSREYDYWGQGTLVTVSS
notes: as for B2
B9: R21448506 (VHH)
VHH: EVQLVESGGGLVQPGGSLRLSCAASGFTFTFRHYVMGWFRQAPGKEREFVAAISWSGSGSYYADSVKGRFTISRDNSKNTVYLQMNSLRAEDTAVYYCAADMTTRMSQASDEYDYWGQGTLVTVSS
notes: as for B2
B10: R21448507 (VHH)
VHH: EVQLVESGGGLVQPGGSLRLSCAASGFTFTFYHYVMGWFRQAPGKEREFVAAISWSGSGSYYADSVKGRFTISRDNSKNTVYLQMNSLRAEDTAVYYCAADMTTEMSQASREYDYWGQGTLVTVSS
notes: as for B2
B11: R21448508 (VHH)
VHH: EVQLVESGGGLVQPGGSLRLSCAASGFTFTFYHYVMGWFRQAPGKEREFVAAISWSGSGSYYADSVKGRFTISRDNSKNTVYLQMNSLRAEDTAVYYCAADMTTRMSQDSREYDYWGQGTLVTVSS
notes: as for B2
B12: R21448509 (VHH)
VHH: EVQLVESGGGLVQPGGSLRLSCAASGFTFTFYHYVMGWFRQAPGKEREFVAAISWSGSGSYYADSVKGRFTISRDNSKNTVYLQMNSLRAEDTAVYYCAADMTTRMSQASDEYDYWGQGTLVTVSS
notes: as for B2
B13: R21448513 (VHH)
VHH: EVQLVESGGGLVQPGGSLRLSCAASGFTFTFYHYVMGWFRQAPGKEREFVADISWSGSGSYYADSVKGRFTISRDNSKNTVYLQMNSLRAEDTAVYYCAADMTTEMSQASREYDYWGQGTLVTVSS
notes: as for B2
B14: R21448514 (VHH)
VHH: EVQLVESGGGLVQPGGSLRLSCAASGFTFTFYHYVMGWFRQAPGKEREFVADISWSGSGSYYADSVKGRFTISRDNSKNTVYLQMNSLRAEDTAVYYCAADMTTRMSQDSREYDYWGQGTLVTVSS
notes: as for B2
B15: R21448515 (VHH)
VHH: EVQLVESGGGLVQPGGSLRLSCAASGFTFTFYHYVMGWFRQAPGKEREFVADISWSGSGSYYADSVKGRFTISRDNSKNTVYLQMNSLRAEDTAVYYCAADMTTRMSQASDEYDYWGQGTLVTVSS
notes: as for B2
B16: R21448516 (VHH)
VHH: EVQLVESGGGLVQPGGSLRLSCAASGFTFTFYHYVMGWFRQAPGKEREFVADISWSGSGSYYADSVKGRFTISRDNSKNTVYLQMNSLRAEDTAVYYCAADMTTEMSQDSDEYDYWGQGTLVTVSS
notes: as for B2
B17: R21448517 (VHH)
VHH: EVQLVESGGGLVQPGGSLRLSCAASGFTFTFRHYVMGWFRQAPGKEREFVAAISWSGSGSYYADSVKGRFTISRDNSKNTVYLQMNSLRAEDTAVYYCAADMTTEMSQDSREYDYWGQGTLVTVSS
notes: as for B2
B18: R21448518 (VHH)
VHH: EVQLVESGGGLVQPGGSLRLSCAASGFTFTFRHYVMGWFRQAPGKEREFVAAISWSGSGSYYADSVKGRFTISRDNSKNTVYLQMNSLRAEDTAVYYCAADMTTEMSQASDEYDYWGQGTLVTVSS
notes: as for B2
B19: R21448519 (VHH)
VHH: EVQLVESGGGLVQPGGSLRLSCAASGFTFTFRHYVMGWFRQAPGKEREFVAAISWSGSGSYYADSVKGRFTISRDNSKNTVYLQMNSLRAEDTAVYYCAADMTTRMSQDSDEYDYWGQGTLVTVSS
notes: as for B2

Tests used:
[1] = molecular target: T1, human PD-L1 expressed on cells (Raji cells overexpressing human PD-L1; CHO cells) (human, UniProt Q9NZQ7 19-290); assay: cell-based or functional assay
[2] = molecular target: T1, human PD-L1 expressed on cells (Raji …); assay: cell-based or functional assay; remark: listed apart in the source
[3] = molecular target: T2, human His-PD-L1 (human, UniProt Q9NZQ7 19-238, limits assumed); assay: ELISA blocking assay: antibody titrated together with Biotin-PD-1 on coated human His-PD-L1, Streptavidin-HRP, OD450
T2 construct: also called human PD-L1

[4] = molecular target: T1, human PD-L1 expressed on cells (Raji …); assay: flow cytometry on CHOK1-PDL1 cells (cell binding assay), GMFI
[5] = molecular target: T1, human PD-L1 expressed on cells (Raji …); assay: flow cytometry, PD-L1 expressed on CHO or Raji cells
[6] = molecular target: T2, human His-PD-L1; assay: ELISA: plate coated with human His-PD-L1, antibody titrated, goat anti-human IgG Fc HRP, OD450
Method: Briefly, 100 μl anti-PD-L1 antibody at different concentrations was incubated in each well of 96 well plate pre-coated with human His-PD-L1, and then goat anti-human IgG Fc HRP was added and analyzed by coloring reaction of HRP with its substrate.

[7] = molecular target: T1, human PD-L1 expressed on cells (Raji …); assay: flow cytometry on CHOK1-PDL1 cells (cell binding assay), GMFI; remark: listed apart in the source
[8] = molecular target: T2, human His-PD-L1; assay: ELISA blocking assay: antibody titrated together with Biotin-PD-1 on coated human His-PD-L1, Streptavidin-HRP, OD450; remark: listed apart in the source
[9] = molecular target: T2, human His-PD-L1; assay: as above; remark: listed apart in the source
[10] = molecular target: T1, human PD-L1 expressed on cells (Raji …); assay: flow cytometry on Raji-PDL1 cells (cell binding assay), GMFI
Method: Binding capability of the anti-PD-L1 antibody of the present application was further evaluated by using Raji cells overexpressing human PD-L1. Briefly, 50 μl Raji cells overexpressing human PD-L1 were seeded into 96 well plate at a concentration of 2*10⁵ cells/well. […] Then the cells were washed twice by FACS buffer and supplemented with 100 μl PE-anti-hu IgG, followed by incubation on ice for 1 hour. After incubation, the cells in each well were collected and resuspended with 65 μl FACS buffer for analysis by flow cytometry.

[11] = molecular target: T2, human His-PD-L1; assay: ELISA blocking assay: antibody titrated together with Biotin-PD-1 on coated human His-PD-L1, Streptavidin-HRP, OD450; remark: listed apart in the source

T2 sequence (Q9NZQ7 19-238 limits assumed): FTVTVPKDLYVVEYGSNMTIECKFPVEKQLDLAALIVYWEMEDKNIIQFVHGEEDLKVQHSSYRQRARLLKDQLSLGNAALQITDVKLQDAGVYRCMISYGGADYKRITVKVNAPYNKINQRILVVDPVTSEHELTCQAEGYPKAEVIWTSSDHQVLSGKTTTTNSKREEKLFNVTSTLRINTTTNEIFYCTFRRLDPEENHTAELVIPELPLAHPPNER
T1 sequence (Q9NZQ7 19-290): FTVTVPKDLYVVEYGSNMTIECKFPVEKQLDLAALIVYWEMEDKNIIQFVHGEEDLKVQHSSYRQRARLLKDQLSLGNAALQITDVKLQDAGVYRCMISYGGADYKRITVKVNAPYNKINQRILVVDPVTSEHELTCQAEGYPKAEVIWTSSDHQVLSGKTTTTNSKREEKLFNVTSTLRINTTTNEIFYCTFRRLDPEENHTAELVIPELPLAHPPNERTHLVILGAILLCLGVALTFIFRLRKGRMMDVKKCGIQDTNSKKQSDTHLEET

Binder	binding result [5]	binding result [6]	also measured
B1			EC50 (read off the curve), NFAT-luciferase signal (RLU), CHO-PDL-1 aAPC and Jurkat-PD-1-NFAT [1]: ~0.6 nM
B2			EC50 (read off the curve), NFAT-luciferase signal (RLU), CHO-PDL-1 aAPC and Jurkat-PD-1-NFAT [2]: ~0.5 nM; IC50 (read off the curve) [3]: ~0.8 nM; EC50 (read off the curve) [4]: ~3 nM
B3	binds	binds	
B4	binds	binds	
B5			EC50 (read off the curve), NFAT-luciferase signal (RLU), CHO-PDL-1 aAPC and Jurkat-PD-1-NFAT [1]: ~0.7 nM
B6	binds	binds	
B7	binds	binds	
B8			EC50 (read off the curve) [7]: ~4 nM
B9		binds	binding result [7]: binds
B10	binds	binds	
B11	binds	binds	
B12			binding result [8]: binds; binding result [7]: binds
B13	binds	binds	
B14			IC50 (read off the curve) [9]: ~0.6 nM
B15			IC50 (read off the curve) [9]: ~0.8 nM
B16			EC50 (read off the curve) [10]: ~0.4 nM; IC50 (read off the curve) [11]: ~0.7 nM
B17	binds	binds	
B18	binds	binds	
B19			IC50 (read off the curve) [9]: ~0.8 nM
